Experimental data published in patent US20200407442A1 (WUXI BIOLOGICS IRELAND, published 2020).

What was measured:
Assay in all cases: ELISA, antibody coated, LAG-3 D12.mFc mutant in supernatant, normalised to control mutants
[1] = target: T1, human LAG-3-ECD.D12.mFc mutant P72A (human, UniProt P18627 37-252)
T1 construct: Alanine scanning mutant; construct limits as for m26
T1 chain: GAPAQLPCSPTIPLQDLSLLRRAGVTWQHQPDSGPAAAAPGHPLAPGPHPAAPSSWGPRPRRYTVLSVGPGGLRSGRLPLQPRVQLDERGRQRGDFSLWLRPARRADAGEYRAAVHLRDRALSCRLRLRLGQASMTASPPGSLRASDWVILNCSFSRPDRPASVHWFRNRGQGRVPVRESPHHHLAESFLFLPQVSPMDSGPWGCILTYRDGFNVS
Method in brief: (§1)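 Antibody 1.53.3-uAb-IgG4k or 3.40.19-uAb-hIgG4L coated at 2 μg/mL, then exposed to supernatant containing quantified LAG-3 D12.mFc mutants. Detection with HRP anti-mFc (1:5000). Absorbance normalized to mean of control mutants; binding fold change <0.75 set as epitope cutoff.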

[2] = target: T2, human LAG-3-ECD.D12.mFc mutant L136A (human, UniProt P18627 37-252)
T2 construct: Alanine scanning mutant; construct limits as for m26
T2 chain: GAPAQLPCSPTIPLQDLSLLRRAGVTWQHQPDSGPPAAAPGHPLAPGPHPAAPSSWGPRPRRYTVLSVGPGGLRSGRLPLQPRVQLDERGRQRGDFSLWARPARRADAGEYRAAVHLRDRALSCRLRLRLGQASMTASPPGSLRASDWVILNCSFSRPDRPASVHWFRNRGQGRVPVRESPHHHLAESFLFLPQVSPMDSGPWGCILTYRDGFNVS
Method in brief: as §1

[3] = target: T3, human LAG-3-ECD.D12.mFc mutant T62A (human, UniProt P18627 37-252)
T3 construct: Alanine scanning mutant; construct limits as for m26
T3 chain: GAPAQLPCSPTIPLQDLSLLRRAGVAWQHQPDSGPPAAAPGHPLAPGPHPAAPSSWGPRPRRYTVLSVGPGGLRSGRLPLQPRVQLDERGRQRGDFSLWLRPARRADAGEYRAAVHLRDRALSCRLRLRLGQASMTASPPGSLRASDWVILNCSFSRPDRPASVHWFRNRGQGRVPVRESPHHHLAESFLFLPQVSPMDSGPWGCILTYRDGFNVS
Method in brief: as §1

[4] = target: T4, human LAG-3-ECD.D12.mFc mutant V151A (human, UniProt P18627 37-252)
T4 construct: Alanine scanning mutant; construct limits as for m26
T4 chain: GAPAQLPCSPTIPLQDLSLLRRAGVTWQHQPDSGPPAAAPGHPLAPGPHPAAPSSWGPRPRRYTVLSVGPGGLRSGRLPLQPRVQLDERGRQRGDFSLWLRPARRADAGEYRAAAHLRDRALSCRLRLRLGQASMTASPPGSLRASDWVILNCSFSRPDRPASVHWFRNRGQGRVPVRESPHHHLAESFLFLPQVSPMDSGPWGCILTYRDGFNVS
Method in brief: as §1

[5] = target: T5, human LAG-3-ECD.D12.mFc mutant L134A (human, UniProt P18627 37-252)
T5 construct: Alanine scanning mutant; construct limits as for m26
T5 chain: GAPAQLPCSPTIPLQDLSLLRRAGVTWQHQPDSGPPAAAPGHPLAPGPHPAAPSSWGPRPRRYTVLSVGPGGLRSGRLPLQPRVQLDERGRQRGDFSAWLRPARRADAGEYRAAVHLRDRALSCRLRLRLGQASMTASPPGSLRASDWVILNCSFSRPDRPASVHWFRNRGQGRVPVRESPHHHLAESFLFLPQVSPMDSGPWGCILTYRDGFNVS
Method in brief: as §1

[6] = target: T6, human LAG-3-ECD.D12.mFc mutant P138A (human, UniProt P18627 37-252)
T6 construct: Alanine scanning mutant; construct limits as for m26
T6 chain: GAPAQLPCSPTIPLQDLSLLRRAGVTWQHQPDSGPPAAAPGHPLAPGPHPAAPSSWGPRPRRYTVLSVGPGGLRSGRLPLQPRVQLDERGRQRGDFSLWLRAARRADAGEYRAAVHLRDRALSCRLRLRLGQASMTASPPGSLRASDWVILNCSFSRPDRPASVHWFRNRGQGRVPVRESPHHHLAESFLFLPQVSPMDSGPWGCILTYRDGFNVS
Method in brief: as §1

[7] = target: T7, human LAG-3-ECD.D12.mFc mutant G130A (human, UniProt P18627 37-252)
T7 construct: Alanine scanning mutant; construct limits as for m26
T7 chain: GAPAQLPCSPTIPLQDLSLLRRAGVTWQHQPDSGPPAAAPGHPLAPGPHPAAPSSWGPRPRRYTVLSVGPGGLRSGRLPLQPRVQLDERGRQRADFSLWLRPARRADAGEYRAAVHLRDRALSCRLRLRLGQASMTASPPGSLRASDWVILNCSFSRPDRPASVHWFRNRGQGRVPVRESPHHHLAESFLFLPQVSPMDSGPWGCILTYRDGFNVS
Method in brief: as §1

[8] = target: T8, human LAG-3-ECD.D12.mFc mutant R163A (human, UniProt P18627 37-252)
T8 construct: Alanine scanning mutant; construct limits as for m26
T8 chain: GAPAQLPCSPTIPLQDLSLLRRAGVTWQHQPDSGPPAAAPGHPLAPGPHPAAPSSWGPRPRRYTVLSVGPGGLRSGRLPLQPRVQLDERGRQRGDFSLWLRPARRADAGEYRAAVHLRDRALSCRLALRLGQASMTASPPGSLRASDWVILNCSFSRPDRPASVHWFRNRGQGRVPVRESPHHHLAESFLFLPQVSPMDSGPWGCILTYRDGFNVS
Method in brief: as §1

B1: 1.53.3-uAb-IgG4k (antibody, V domains shown)
VH: QVQLQQWGAGLLKPSETLSLTCGVYGGSFSGYYWSWIRQPPGMGLEWIGEINHRGNTNYNPSLKSRVTISEDTSKNQFSLRLSSVTAADTAVYFCTRGEDYSDYDYYGDFWGQGTLVTVSS
VL: EIVLTQSPATLSLSQGERATLSCRASQSISSYLAWYQQKPGQAPRLLIYAASNRATGIPARFSGSGSGTDFTLTISSLEPEDFAIYYCQQRSNWPLTFGGGTKVEIK
notes: Fully human antibody from OMT rats; IgG4 kappa by its name
B1 was tested, and the “Fold Change” value [1] was 0.743.

B2: 3.40.19-uAb-IgG4L (antibody, V domains shown)
VH: QLQLQESGPGLVKPSETLSLTCTVSGDSISSTSYYWGWIRQPPGKGLEWIGSFYYSGSTYYNPSLKSRVTISVDTSKNQFSLKLNSVTAADTAVYYCARMQLWSYDVDVWGQGTTVTVSS
VL: QSALTQPASVSGSPGQSITISCTGTSSDVGGYDYVAWYQQHPGKVPKLMIYDVSERPSGVSNRFSGSKSGNTASLTISGLQAEDEADYYCSSYTSTTTLVVFGGGTKLSVL
notes: Fully human antibody from OMT rats; IgG4 lambda by its name; also called 3.40.19-uAb-hIgG4L
In the case of B2, the “Fold Change” value [2] is reported as 0.043, the “Fold Change” value [3] is reported as 0.727 and the “Fold Change” value [4] is reported as 0.043. The “Fold Change” value [5] was 0.04, the “Fold Change” value [6] was 0.106 and the “Fold Change” value [7] was 0.102. For the same binder, the “Fold Change” value [8] was 0.655.
